Assay [1] addresses T1, MSLN mature form-his (human, UniProt Q13421 296-598, biotinylated (site not stated) in the ELISA of Example 2; detected with SA-APC in the yeast single-clone FACS).
T1 construct: also called mesothelin mature form-his antigen; biotinylated MSLN-his; not shown: His tag
The assay can be described thus: Direct-binding ELISA: scFv coated on the plate, biotinylated MSLN mature form-his titrated (M), streptavidin-HRP, A450. Here is the method:
(§1) 100 ng of the scFv protein purified in Example 1 was added to each well of a plate and refrigerated for 15 hours, thereby coating the plate with the protein. After incubation, each well was blocked with 200 μL of PBS (3% BSA) for 1 hour at room temperature. Biotinylated MSLN-his protein was serially diluted 1/5 from 10⁻⁶ M and then bound to the anti-MSLN scFv, coated on the ELISA plate, for 1 hour at room temperature. Each well was washed three times with PBST (0.05% tween 20) wash buffer, and then treated with HRP-conjugated streptavidin (Abcam) (diluted 40,000:1) for detection of biotinylated […] and incubated at room temperature for 1 hour. Each well was washed three times with PBST (0.05% tween20) wash buffer, and then treated with TMB and incubated at room temperature for 20 minutes. After treatment with 2M H₂SO₄, the absorbance at 450 nm was measured.
(In general: ELISA stands for enzyme-linked immunosorbent assay.)

For assay [2], the target named is T1, MSLN mature form-his. The assay can be described thus: Direct-binding ELISA: scFv coated on the plate, biotinylated MSLN mature form-his titrated, streptavidin-HRP, A450; the half-maximal value is headed 'IC50 (M)' in the drawn table, row 'Mature MSLN'. Here is the method: as §1
Assay [3] addresses T2, biotinylated mesothelin of SEQ ID NO: 1 (human, UniProt Q13421 296-598, biotinylated (site not stated)).
T2 construct: also called biotinylated mature form of the mesothelin antigen
Nature of the assay: FACS of 293T cells transduced with the #19-1 CAR, biotinylated mature mesothelin plus PE-streptavidin (B4-A vs SSC-A). The method, then:
The generated cells were cultured for 2 days. […] Then, biotin was fluorescently labeled using PE-conjugated streptavidin protein and FACS analysis was performed.

A further assay deals with T3, MSLN (ACRO) (human, UniProt Q13421, PE-conjugated (site not given)).
T3 construct: soluble antigen, PE-conjugated; also called PE-conjugated MSLN antigen
Nature of the assay: FACS of PBNK cells transduced with the #19-1 CAR, stained with PE-conjugated MSLN antigen 'MSLN (ACRO)' (B4-A vs SSC-A); also printed as 26%; Mock (empty vector) cells 0.24. From the text: A mesothelin-specific chimeric antigen receptor construct virus was produced in the same manner as in Example 8 above, and then natural killer cells were used as immune 5 effector cells to be genetically engineered to express the chimeric antigen receptor. As such natural killer cells, PBMC (Human PB MNC) cells were purchased from StemCell, cultured for 10 days, and used after differentiation into PBNK cells. PBMC and PBNK cells, as well as lentivirus-transduced PBNK cells described below, were all cultured in NK MACS medium containing 100 µg/mL of streptomycin, 100 units/mL of penicillin, 10 ng/mL of rhIL-15, and 500 IU of rhIL-2. Culture of all cells was performed in a 5% CO₂ (95% air) environment at 37° C. For expression of the mesothelin-specific CAR, 5×10⁵ PBNK cells and the produced antigen receptor construct virus with an MOI of 2 were added to a 24-well plate, and then for induction of transduction, PGE2 (prostaglandin E2) and LentiBOOST (lentiviral gene transfer inducer) were used, thereby generating NK cells expressing the mesothelin-specific CAR. […]

Assay [4] addresses T4, recombinant human mature MSLN (SEQ ID NO: 1) (human, UniProt Q13421 296-598).
T4 construct: Immobilized by amide coupling on a CM5 chip for SPR; also called mesothelin; recombinant human mesothelin protein antigen
Nature of the assay: SPR, mature MSLN immobilized on CM5 chip, #19-1 scFv-Fc injected in two-fold dilutions, 1:1 depletion corrected binding model. Here is the method:
The binding affinity of the humanized antibody #19-1 purified in Example 6 to mesothelin was evaluated by surface plasmon resonance (SPR) method. First, recombinant human mature MSLN (SEQ ID NO: 1) was immobilized by an amide bond on the surface of a carboxymethyldextran (CM5) chip at densities of about 560 RU and 520 RU. Next, two-fold serial dilutions of humanized antibody #19-1 were injected at a constant flow rate. The association and dissociation rates of the protein complex (complex of humanized antibody #19-1 and mature MSLN) were monitored for 180 and 540 seconds, respectively. Referencing was performed on a blank flow cell. Finally, the binding affinity of humanized antibody #19-1 to mesothelin was determined using the 1:1 depletion corrected binding model.
A general note: SPR reads the build-up and loss of mass on a sensor chip optically.

The source of these data is patent publication US20250092154A1 (UCI THERAPEUTICS, published 2025).

One may read the EC50 (read off the curve) as the concentration needed to bring the measured effect to its halfway point. The term IC50 denotes the midpoint of a concentration-inhibition curve. Read a low IC50 as higher potency. A word on the Kd: it is the equilibrium constant for the complex coming apart.

T1 sequence (Q13421 other isoform, or with tags, fused parts or gaps limits assumed): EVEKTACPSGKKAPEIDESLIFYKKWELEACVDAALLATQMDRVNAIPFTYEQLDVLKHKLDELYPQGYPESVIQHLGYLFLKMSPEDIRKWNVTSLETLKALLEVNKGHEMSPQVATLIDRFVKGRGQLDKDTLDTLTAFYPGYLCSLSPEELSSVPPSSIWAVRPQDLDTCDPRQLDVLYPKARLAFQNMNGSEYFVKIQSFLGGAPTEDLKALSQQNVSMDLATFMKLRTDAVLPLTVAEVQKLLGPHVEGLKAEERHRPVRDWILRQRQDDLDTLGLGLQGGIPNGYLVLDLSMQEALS
T3 sequence (Q13421 other isoform, or with tags, fused parts or gaps limits assumed): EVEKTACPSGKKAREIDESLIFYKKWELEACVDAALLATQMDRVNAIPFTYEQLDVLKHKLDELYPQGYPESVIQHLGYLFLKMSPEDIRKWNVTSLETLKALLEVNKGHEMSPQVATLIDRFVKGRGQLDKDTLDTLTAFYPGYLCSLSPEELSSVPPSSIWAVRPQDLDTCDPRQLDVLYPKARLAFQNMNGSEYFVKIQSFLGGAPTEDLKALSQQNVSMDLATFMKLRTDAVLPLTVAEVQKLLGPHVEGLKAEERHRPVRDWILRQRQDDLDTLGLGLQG

B1: mesothelin-specific scFv #19 (purified from E. coli) (scFv)
scFv: DIVITQSPAIMSASPGEKVTMTCSASSSVSYMHWYQQKSGTSPKRWIYDTSKLASGVPARFSGSGSGTSYSLTISSMEAEDAATYYCQQWSSNPLTFGAGTKLEIKRGGGGSGGGGSGGGGSQVQLQQSGPELVKPGASVKISCKASGYSFTDYNMNWVKQSNGKSLEWIGVINPNYGTTSYNQKFKGKATITADTSSNTAYLQLSSLTSEDSAVYYCAKGDYDGAGFAYWGQGTLVTVSA
notes: also called mouse scFv #19; anti-MSLN scFv; not shown: His tag (Ni-NTA purification, anti-HISx6 detection) and any other pmopac12 vector tag
As to B1, the “EC50 (read off the curve)” value with MSLN mature form-his [1] was about 3 nM. The half-inhibitory concentration (IC50) with MSLN mature form-his [2] was determined as 2.43 nM.

B2: mesothelin-specific CAR comprising humanized scFv #19-1, on cells (293T cells; PBNK cells) (receptor)
chain: EIVLTQSPATLSLSPGERATLSCSASSSVSYMHWYQQKPGQAPRLLIYDTSKLASGIPARFSGSGSGTDFTLTISSLEPEDFAVYYCQQWSSNPLTFGQGTKLEIKRGGGGSGGGGSGGGGSQVQLVQSGAEVKKPGASVKVSCKASGYTFTDYNMNWVRQAPGQGLEWMGVINPNYGTTSYNQKFKGRVTMTRDTSTSTVYMELSSLRSEDTAVYYCARGDYDGAGFAYWGQGTLVTVSSTTTPAPRPPTPAPTIASQPLSLRPEACRPAAGGAVHTRGLDFACDIYIWAPLAGTCGVLLLSLVITLYCKRGRKKLLYIFKQPFMRPVQTTQEEDGCSCRFPEEEEGGCELRVKFSRSADAPAYKQGQNQLYNELNLGRREEYDVLDKRRGRDPEMGGKPRRKNPQEGLYNELQKDKMAEAYSEIGMKGERRRGKGHDGLYQGLSTATKDTYDALHMQALPPR
notes: also called #19-1 CAR; MSLN-CAR
Turning to B2, the “% Parent in gate P4 (cells binding 'Mature MSLN')” value in assay [3] was determined as 54.8%. Further, the “% Parent in gate P24” value with MSLN (ACRO) worked out at 25.6%.

B3: mesothelin-specific scFv #45 (purified from E. coli) (scFv)
scFv: DIVLTQSPAIMSTSPGEKVTMTCTASSSVSYMHWYQQKSGTSPKRWIYDTSKLASGVPARFSGSGSGTSYSLTISRMEAEDAATYYCQQWSSYPLTFGAGTKLEMKRGGGGSGGGGSGGGGSQVQLQQPGAELVKPGASVKLSCKASGYTFTSYWMHWVKQRPGQGLEWIGMIHPNSGGTNYNEKFKSKATLTVDKSSSTAYMQLSSLTSEDSAVYYCARYYYGNYVWYFDVWGTGTTVTVSA
notes: also called anti-MSLN scFv; not shown: His tag (Ni-NTA purification, anti-HISx6 detection) and any other pmopac12 vector tag
As to B3, in the assay with MSLN mature form-his [1], the 50% effective concentration (EC50 (read off the curve)) was about 8 nM. Further, the half-inhibitory concentration (IC50) in the assay with MSLN mature form-his [2] came out at 9.43 nM.

B4: humanized antibody #19-1 (#19-1 scFv-Fc) (Fc fusion)
scFv: EIVLTQSPATLSLSPGERATLSCSASSSVSYMHWYQQKPGQAPRLLIYDTSKLASGIPARFSGSGSGTDFTLTISSLEPEDFAVYYCQQWSSNPLTFGQGTKLEIKRGGGGSGGGGSGGGGSQVQLVQSGAEVKKPGASVKVSCKASGYTFTDYNMNWVRQAPGQGLEWMGVINPNYGTTSYNQKFKGRVTMTRDTSTSTVYMELSSLRSEDTAVYYCARGDYDGAGFAYWGQGTLVTVSS
notes: Expressed in ExpiCHO as #19-1 scFv-Fc and purified by protein A and SEC; also called humanized scFv #19-1; scFv antibody #19-1; not shown: Human IgG-Fc tag fused C-terminal to the scFv, and any hinge or linker to it
For B4, the Kd in assay [4] came to 80.8 nM.
